# Measurements published in article PMC6927645, “Self-association of human beta-galactocerebrosidase: Dependence on pH, salt, and surfactant” (PLoS ONE, 2019).
# Molecular target: the molecule itself
# Test: AUC; sedimentation velocity dilution series, 40,000 rpm, 20°C, Rayleigh optics; 5 mM sodium phosphate pH 6.0 with 50, 150 or 500 mM NaCl; Wide Distribution Analysis and fits in SedAnal; self-association of monomer to higher oligomers
protein,measurement,value
"recombinant human galactocerebrosidase (hGALC) (enzyme, UniProt P54803 43-685, looked up, heavily glycosylated; glycan structures not determined, human galactocerebrosidase (GALC); The protein was recovered from the culture broth, and the computed 73 kDa protein moiety fits the precursor without its signal peptide (surmised); No tag is mentioned; also called human beta-galactocerebrosidase; galactocerebrosidase enzyme; source: virus filtration; ultrafiltration/diafiltration)) YVLDDSDGLGREFDGIGAVSGGGATSRLLVNYPEPYRSQILDYLFKPNFGASLHILKVEIGGDGQTTDGTEPSHMHYALDENYFRGYEWWLMKEAKKRNPNITLIGLPWSFPGWLGKGFDWPYVNLQLTAYYVVTWIVGAKRYHDLDIDYIGIWNERSYNANYIKILRKMLNYQGLQRVKIIASDNLWESISASMLLDAELFKVVDVIGAHYPGTHSAKDAKLTGKKLWSSEDFSTLNSDMGAGCWGRILNQNYINGYMTSTIAWNLVASYYEQLPYGRCGLMTAQEPWSGHYVVESPVWVSAHTTQFTQPGWYYLKTVGHLEKGGSYVALTDGLGNLTIIIETMSHKHSKCIRPFLPYFNVSQQFATFVLKGSFSEIPELQVWYTKLGKTSERFLFKQLDSLWLLDSDGSFTLSLHEDELFTLTTLTTGRKGSYPLPPKSQPFPSTYKDDFNVDYPFFSEAPNFADQTGVFEYFTNIEDPGEHHFTLRQVLNQRPITWAADASNTISIIGDYNWTNLTIKCDVYIETPDTGGVFIAGRVNKGGILIRSARGIFFWIFANGSYRVTGDLAGWIIYALGRVEVTAKKWYTLTLTIKGHFTSGMLNDKSLWTDIPVNFPKNGWAAIGTHSFEFAQFDNFLVEATR",stoichiometry N,≥ 4
